Reference: the supplement of paper PMC9112550, “Optimization of the antimicrobial peptide Bac7 by deep mutational scanning” (BMC Biology, 2022)

tested on: Escherichia coli TOP10; assay: shrunken log2 fold change of peptide-encoding DNA abundance (4.5 h post-induction vs induction); higher = less antimicrobial activity (less host growth inhibition); details: time post-induction: 4.5 h; library: site-saturation at positions 5, 18, 19, 20
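Further: peptides expressed intracellularly from a pBAD plasmid library in pooled LB shake-flask culture, induced with 0.3% L-arabinose, DNA abundance read by NGS, three biological replicates, DESeq2 with apeglm shrinkage.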

Row | Sequence | shrunken log2 fold change
1 | RRIRTRPPRLPRPRPRPDWLPRP | 0.514
2 | RRIRNRPPRLPRPRPRPLNEPRP | -0.233
3 | RRIRTRPPRLPRPRPRPLHEPRP | -0.191
4 | RRIRLRPPRLPRPRPRPVGCPRP | 0.226
5 | RRIRQRPPRLPRPRPRPEYQPRP | 0.00438
6 | RRIRSRPPRLPRPRPRPQQRPRP | 0.153
7 | RRIRYRPPRLPRPRPRPSFFPRP | -0.665
8 | RRIRLRPPRLPRPRPRPRWPPRP | 0.716
9 | RRIRDRPPRLPRPRPRPKIFPRP | -0.0898
10 | RRIRGRPPRLPRPRPRPSDIPRP | 0.399
11 | RRIRTRPPRLPRPRPRPREAPRP | 0.388
12 | RRIRERPPRLPRPRPRPHMAPRP | -0.0803
13 | RRIRQRPPRLPRPRPRPVLEPRP | 0.198
14 | RRIRSRPPRLPRPRPRPFIFPRP | -0.343
15 | RRIRARPPRLPRPRPRPIFMPRP | 0.104
16 | RRIRSRPPRLPRPRPRPGNWPRP | -0.0906
17 | RRIRERPPRLPRPRPRPGTFPRP | -0.378
18 | RRIRQRPPRLPRPRPRPFPEPRP | -0.0157
19 | RRIRERPPRLPRPRPRPTLPPRP | 0.123
20 | RRIRGRPPRLPRPRPRPYGNPRP | -0.102
21 | RRIRFRPPRLPRPRPRPYKLPRP | -0.438
22 | RRIRARPPRLPRPRPRPPYAPRP | 0.251
23 | RRIRERPPRLPRPRPRPKCGPRP | 0.0971
24 | RRIRARPPRLPRPRPRPGYGPRP | 0.277
25 | RRIRKRPPRLPRPRPRPVSWPRP | 0.821

Row | Sequence | shrunken log2 fold change
26 | RRIRDRPPRLPRPRPRPHHQPRP | -0.0302
27 | RRIRCRPPRLPRPRPRPNICPRP | -0.488
28 | RRIRIRPPRLPRPRPRPYSYPRP | -0.0485
29 | RRIRARPPRLPRPRPRPKIAPRP | 0.177
30 | RRIRYRPPRLPRPRPRPHCMPRP | -0.161
31 | RRIRERPPRLPRPRPRPRAKPRP | 0.192
32 | RRIRWRPPRLPRPRPRPSLMPRP | 0.122
33 | RRIRGRPPRLPRPRPRPYRSPRP | -0.113
34 | RRIRKRPPRLPRPRPRPNLYPRP | -0.111
35 | RRIRYRPPRLPRPRPRPFMMPRP | -0.108
36 | RRIRSRPPRLPRPRPRPALRPRP | 0.169
37 | RRIRQRPPRLPRPRPRPPCPPRP | 0.085
38 | RRIRTRPPRLPRPRPRPNVCPRP | 0.128
39 | RRIRERPPRLPRPRPRPDHRPRP | -0.00204
40 | RRIRPRPPRLPRPRPRPIFEPRP | 0.154
41 | RRIRWRPPRLPRPRPRPHDRPRP | 0.00489
42 | RRIRRRPPRLPRPRPRPVGPPRP | -0.0193
43 | RRIRARPPRLPRPRPRPWRDPRP | 0.225
44 | RRIRARPPRLPRPRPRPEGIPRP | 0.0659
45 | RRIRSRPPRLPRPRPRPTYTPRP | -0.24
46 | RRIRYRPPRLPRPRPRPLHYPRP | -1.53
47 | RRIRHRPPRLPRPRPRPYYDPRP | -0.0623
48 | RRIRNRPPRLPRPRPRPAMAPRP | 0.0129
49 | RRIRQRPPRLPRPRPRPNQIPRP | -0.371
50 | RRIRMRPPRLPRPRPRPMNRPRP | -0.24

Row | Sequence | shrunken log2 fold change
51 | RRIRARPPRLPRPRPRPQMGPRP | -0.0713
52 | RRIRLRPPRLPRPRPRPFYLPRP | -0.572
53 | RRIRFRPPRLPRPRPRPYMIPRP | -0.59
54 | RRIRERPPRLPRPRPRPNRQPRP | 0.0895
55 | RRIRARPPRLPRPRPRPSHIPRP | -0.523
56 | RRIRDRPPRLPRPRPRPPPYPRP | -0.0814
57 | RRIRARPPRLPRPRPRPYADPRP | 0.103
58 | RRIRLRPPRLPRPRPRPCMTPRP | 0.0964
59 | RRIRHRPPRLPRPRPRPSKYPRP | -0.776
60 | RRIRVRPPRLPRPRPRPEKKPRP | -0.0337
61 | RRIRDRPPRLPRPRPRPTNMPRP | -0.00949
62 | RRIRSRPPRLPRPRPRPNHGPRP | -0.4
63 | RRIRQRPPRLPRPRPRPNTAPRP | -0.0235
64 | RRIRWRPPRLPRPRPRPTSHPRP | -0.26
65 | RRIRRRPPRLPRPRPRPWMAPRP | 0.0421
66 | RRIRHRPPRLPRPRPRPVELPRP | 0.115
67 | RRIRNRPPRLPRPRPRPHPLPRP | -0.122
68 | RRIRKRPPRLPRPRPRPVMQPRP | 0.041
69 | RRIRDRPPRLPRPRPRPKWYPRP | -0.0377
70 | RRIRWRPPRLPRPRPRPEYEPRP | -0.0434
71 | RRIRCRPPRLPRPRPRPESTPRP | 0.0373
72 | RRIRRRPPRLPRPRPRPGTPPRP | 0.435
73 | RRIRTRPPRLPRPRPRPIWRPRP | -0.111
74 | RRIRIRPPRLPRPRPRPKQPPRP | 0.102
75 | RRIRIRPPRLPRPRPRPLFQPRP | -0.394

Row | Sequence | shrunken log2 fold change
76 | RRIRWRPPRLPRPRPRPNALPRP | 0.15
77 | RRIRDRPPRLPRPRPRPSKIPRP | -0.381
78 | RRIRARPPRLPRPRPRPLNNPRP | -0.346
79 | RRIRLRPPRLPRPRPRPFHWPRP | -0.000687
80 | RRIRWRPPRLPRPRPRPCQYPRP | 0.0863
81 | RRIRCRPPRLPRPRPRPYTNPRP | -1.19
82 | RRIRVRPPRLPRPRPRPGAIPRP | 0.0707
83 | RRIRGRPPRLPRPRPRPQVVPRP | 0.0944
84 | RRIRRRPPRLPRPRPRPDPDPRP | -0.0342
85 | RRIRGRPPRLPRPRPRPHSFPRP | 2.05
86 | RRIRFRPPRLPRPRPRPEQQPRP | 0.171
87 | RRIRIRPPRLPRPRPRPSGCPRP | -0.137
88 | RRIRFRPPRLPRPRPRPGWGPRP | 0.076
89 | RRIRDRPPRLPRPRPRPKQKPRP | 0.03
90 | RRIRDRPPRLPRPRPRPWLNPRP | -0.277
91 | RRIRLRPPRLPRPRPRPTWIPRP | 0.0209
92 | RRIRMRPPRLPRPRPRPQDQPRP | 0.228
93 | RRIRTRPPRLPRPRPRPMQYPRP | -0.0442
94 | RRIRVRPPRLPRPRPRPAAAPRP | 0.69
95 | RRIRNRPPRLPRPRPRPSDVPRP | -1.29
96 | RRIRQRPPRLPRPRPRPHMWPRP | -0.129
97 | RRIRIRPPRLPRPRPRPMDGPRP | -0.108
98 | RRIRSRPPRLPRPRPRPFFKPRP | -0.192
99 | RRIRFRPPRLPRPRPRPFKSPRP | 0.0901
100 | RRIRFRPPRLPRPRPRPALHPRP | -0.0349

Row | Sequence | shrunken log2 fold change
101 | RRIRCRPPRLPRPRPRPASRPRP | 0.096
102 | RRIRDRPPRLPRPRPRPRTTPRP | 0.0893
103 | RRIRQRPPRLPRPRPRPLGHPRP | 0.0124
104 | RRIRYRPPRLPRPRPRPRQFPRP | -0.379
105 | RRIRNRPPRLPRPRPRPESKPRP | -0.0938
106 | RRIRIRPPRLPRPRPRPMWIPRP | -0.208
107 | RRIRDRPPRLPRPRPRPEANPRP | 1.28
108 | RRIRNRPPRLPRPRPRPEDEPRP | -0.0168
109 | RRIRSRPPRLPRPRPRPHFWPRP | 0.0758
110 | RRIRGRPPRLPRPRPRPDTCPRP | 0.131
111 | RRIRGRPPRLPRPRPRPKSSPRP | 0.508
112 | RRIRTRPPRLPRPRPRPVSVPRP | -0.0287
113 | RRIRRRPPRLPRPRPRPVRKPRP | -0.0548
114 | RRIRYRPPRLPRPRPRPFTNPRP | 0.0209
115 | RRIRPRPPRLPRPRPRPTGQPRP | 0.152
116 | RRIRSRPPRLPRPRPRPEQDPRP | 0.206
117 | RRIRIRPPRLPRPRPRPLHLPRP | -1.08
118 | RRIRRRPPRLPRPRPRPCQTPRP | -0.041
119 | RRIRHRPPRLPRPRPRPRGKPRP | -0.241
120 | RRIRKRPPRLPRPRPRPAFIPRP | 0.129
121 | RRIRIRPPRLPRPRPRPWVWPRP | 0.414
122 | RRIRQRPPRLPRPRPRPKAGPRP | 0.0875
123 | RRIRLRPPRLPRPRPRPSYRPRP | -0.242
124 | RRIRRRPPRLPRPRPRPSSYPRP | -0.0808
125 | RRIRARPPRLPRPRPRPRVSPRP | 0.492

Row | Sequence | shrunken log2 fold change
126 | RRIRARPPRLPRPRPRPTVRPRP | 0.302
127 | RRIRCRPPRLPRPRPRPSNPPRP | 0.442
128 | RRIRSRPPRLPRPRPRPSLPPRP | -0.352
129 | RRIRNRPPRLPRPRPRPAYSPRP | -0.189
130 | RRIRTRPPRLPRPRPRPGNNPRP | -0.14
131 | RRIRERPPRLPRPRPRPAHIPRP | -0.0903
132 | RRIRGRPPRLPRPRPRPKVYPRP | -0.0773
133 | RRIRKRPPRLPRPRPRPMRNPRP | 1.32
134 | RRIRFRPPRLPRPRPRPQESPRP | 0.124
135 | RRIRKRPPRLPRPRPRPNSGPRP | 0.0179
136 | RRIRCRPPRLPRPRPRPTTQPRP | 0.0242
137 | RRIRWRPPRLPRPRPRPMVIPRP | -0.14
138 | RRIRCRPPRLPRPRPRPAQEPRP | 0.101
139 | RRIRARPPRLPRPRPRPCPVPRP | 0.0768
140 | RRIRARPPRLPRPRPRPAEHPRP | 0.193
141 | RRIRHRPPRLPRPRPRPAYNPRP | -1.04
142 | RRIRARPPRLPRPRPRPQYNPRP | -0.334
143 | RRIRQRPPRLPRPRPRPDILPRP | -0.0607
144 | RRIRNRPPRLPRPRPRPTVTPRP | 0.354
145 | RRIRGRPPRLPRPRPRPYLRPRP | -0.0169
146 | RRIRKRPPRLPRPRPRPQEEPRP | 0.0428
147 | RRIRQRPPRLPRPRPRPTTCPRP | 0.106
148 | RRIRGRPPRLPRPRPRPQPGPRP | 0.606
149 | RRIRMRPPRLPRPRPRPQDWPRP | 0.00698
150 | RRIRPRPPRLPRPRPRPTDNPRP | -0.134
